Assay results: IntAct's records for PubMed 19691494

B1: G-protein coupled receptor 15 (Pan troglodytes (Chimpanzee)), Q9BG77 (parent)
chain: MDPEETSVYLDYYYATSPNSDIRETHSHVPYTSVFLPVFYTAVFLTGVLGNLVLMGALHFKPGSRRLIDIFIINLAASDFIFLVTLPLWVDKEASLGLWRTGSFLCKGSSYMISVNMHCSVLLLTCMSVDRYLAIVWPVVSRKFRRTDCAYVVCASIWFISCLLGLPTLLSRELTLIDDKPYCAEKKATPIKLIWSLVALIFTFFVPLLSIVTCYCCIARKLCAHYQQSGKHNKKLKKSIKIIFIVVAAFLVSWLPFNTFKFLAIVSGLRQEHYLPSAILQLGMEVSGPLAFANSCVNPFIYYIFDSYIRRAIVHCLCPCLKNYDFGSSTETSDSHLTKALSTFIHAEDFARRRKRSVSL

Variants of: B1
Conditions: with 1433b_human YWHAB

Variant	effect of a mutation on the interaction
S359A	disrupting interaction
